System: HCE-T cells
Test: Viability (MTT) / cytoprotection of IFNG/TNF stressed cells
Format: cell-based, human
Conditions: 10 nM, IFNG/TNF stressed cells
Experimental: Viability was monitored using the 3-(4,5-dimethyl[…])-2,5-diphenyltetrazolium bromide) (MTT) reduction assay (Invitrogen) or a Nucleocounter (New Brunswick Scientific, Edison, N.J.). Cells were seeded overnight in 24-well plates at a density of 500 cells/mm2 to give rise to ˜80% confluence the next day. Then cells were sensitized overnight in IFNG (100 units/ml) in α-MEM and treated in triplicate for 15 min with 10 nm lacritin or lacritin deletion or point mutants or with different lacritin doses in α-MEM together with TNF as described above.
Inclusion of inhibitors was simultaneous with the addition of lacritin or C-25 in all viability and other experiments except where otherwise noted. Inhibitors included PI103 (0.5 μm; EMD, Darmstadt, Germany), rapamycin (10 and 100 nm; EMD), and cyclosporin A (0.1 μm; EMD). One exception was 4-methylumbelliferyl-β-d-xylopyranoside (“xyloside”; 70 and 80 nm; Sigma), which was added during IFNG sensitization and during treatment with TNF and lacritin. The assay was completed by addition of MTT (5 mg/ml) to each well (at 37° C. for 4 h) followed by isopropanol with 0.04 n HCl and measurement at 570 nm using a reference wavelength of 630 nm. Viability was assayed in a Nucleocounter (New Brunswick Scientific).

B1: I98S: lacritin point mutant (protein, UniProt Q9GZZ8 20-138, looked up, variant I98S)
Extracellular glycoprotein …: EDASSDSTGADPAQEAGTSKPNEEISGPAEPASPPETTTTAQETSAAAVQGTAKVTSSRQELNPLKSIVEKSILLTEQALAKAGKGMHGGVPGGKQFSENGSEFAQKLLKKFSLLKPWA
In the case of B1, the “Cytoprotective activity of lacritin truncation and point mutants” value (“Cytoprotective activity” for short) is reported as “significantly less active”.

B2: F104S: lacritin point mutant (protein, UniProt Q9GZZ8 20-138, looked up, variant F104S)
Extracellular glycoprotein …: EDASSDSTGADPAQEAGTSKPNEEISGPAEPASPPETTTTAQETSAAAVQGTAKVTSSRQELNPLKSIVEKSILLTEQALAKAGKGMHGGVPGGKQFIENGSESAQKLLKKFSLLKPWA
For B2, the “Cytoprotective activity” value was “significantly less active”.

B3: L108S/L109S/F112S: lacritin triple point mutant (protein, UniProt Q9GZZ8 20-138, looked up, variant L108S L109S F112S)
Extracellular glycoprotein …: EDASSDSTGADPAQEAGTSKPNEEISGPAEPASPPETTTTAQETSAAAVQGTAKVTSSRQELNPLKSIVEKSILLTEQALAKAGKGMHGGVPGGKQFIENGSEFAQKSSKKSSLLKPWA
With B3 the “Cytoprotective activity” value was “significantly less active”.

B4: I73S: lacritin point mutant (protein, UniProt Q9GZZ8 20-138, looked up, variant I73S)
Extracellular glycoprotein …: EDASSDSTGADPAQEAGTSKPNEEISGPAEPASPPETTTTAQETSAAAVQGTAKVTSSRQELNPLKSIVEKSSLLTEQALAKAGKGMHGGVPGGKQFIENGSEFAQKLLKKFSLLKPWA
In the case of B4, the “Cytoprotective activity” value is reported as “unaffected”.

B5: V69S: lacritin point mutant (protein, UniProt Q9GZZ8 20-138, looked up, variant V69S)
Extracellular glycoprotein …: EDASSDSTGADPAQEAGTSKPNEEISGPAEPASPPETTTTAQETSAAAVQGTAKVTSSRQELNPLKSISEKSILLTEQALAKAGKGMHGGVPGGKQFIENGSEFAQKLLKKFSLLKPWA
For B5, the “Cytoprotective activity” value was “unaffected”.

B6: F112S: lacritin point mutant (protein, UniProt Q9GZZ8 20-138, looked up, variant F112S)
Extracellular glycoprotein …: EDASSDSTGADPAQEAGTSKPNEEISGPAEPASPPETTTTAQETSAAAVQGTAKVTSSRQELNPLKSIVEKSILLTEQALAKAGKGMHGGVPGGKQFIENGSEFAQKLLKKSSLLKPWA
B6 was tested, and the “Cytoprotective activity” value was “significantly less active”.

B7: L65S: lacritin point mutant (protein, UniProt Q9GZZ8 20-138, looked up, variant L65S)
Extracellular glycoprotein …: EDASSDSTGADPAQEAGTSKPNEEISGPAEPASPPETTTTAQETSAAAVQGTAKVTSSRQELNPSKSIVEKSILLTEQALAKAGKGMHGGVPGGKQFIENGSEFAQKLLKKFSLLKPWA
With B7 the “Cytoprotective activity” value was “unaffected”.
